Data on two molecules can be found in paper PMC3664799 (Nucleic Acids Research, 2013).

Sequences and labels used below:
B1: DnaC6-DnaI6 complex (co-purified DnaC helicase and DnaI loader) (complex, Bacillus subtilis)
chain 1: MTDLLNDRLPPQNIEAEQAVLGAIFLQPSALTLASEVLIPDDFYRMSHQKIYNAMLVLGDRGEPVDLVTVTSELANTDLLEEVGGISYLTDIANSVPTAANIEYYAKIVEEKSILRRLIRTATTIAQDGYTREDEVEDLLSEAEKTIMEVAQRKNTSAFQNIKDVLVQTYDNIEQLHNRKGDITGIPTGFTELDRMTAGFQRNDLIIVAARPSVGKTAFALNIAQNVATKTDESVAIFSLEMGAEQLVMRMLCAEGNINAQNLRTGNLTEEDWGKLTMAMGSLSNSGIYIDDTPGIRVSEIRAKCRRLKQESGLGMILIDYLQLIQGSGRSKDNRQQEVSEISRELKSIARELQVPVIALSQLSRGVEQRQDKRPMMSDIRESGSIEQDADIVAFLYRDDYYDKETENKNIIEIIIAKQRNGPVGTVSLAFVKEYNKFVNLERRFDDAGVPPGA
chain 2: MEPIGRSLQGVTGRPDFQKRLEQMKEKVMKDQDVQAFLKENEEVIDQKMIEKSLNKLYEYIEQSKNCSYCSEDENCNNLLEGYHPKLVVNGRSIDIEYYECPVKRKLDQQKKQQSLMKSMYIQQDLLGATFQQVDISDPSRLAMFQHVTDFLKSYNETGKGKGLYLYGKFGVGKTFMLAAIANELAEKEYSSMIVYVPEFVRELKNSLQDQTLEEKLNMVKTTPVLMLDDIGAESMTSWVRDEVIGTVLQHRMSQQLPTFFSSNFSPDELKHHFTYSQRGEKEEVKAARLMERILYLAAPIRLDGENRRHP

In test [1] the target is T1, DnaEBs DNA polymerase (Bacillus subtilis DnaE) (Bacillus subtilis, UniProt O34623 1-1115).
T1 sequence (looked up): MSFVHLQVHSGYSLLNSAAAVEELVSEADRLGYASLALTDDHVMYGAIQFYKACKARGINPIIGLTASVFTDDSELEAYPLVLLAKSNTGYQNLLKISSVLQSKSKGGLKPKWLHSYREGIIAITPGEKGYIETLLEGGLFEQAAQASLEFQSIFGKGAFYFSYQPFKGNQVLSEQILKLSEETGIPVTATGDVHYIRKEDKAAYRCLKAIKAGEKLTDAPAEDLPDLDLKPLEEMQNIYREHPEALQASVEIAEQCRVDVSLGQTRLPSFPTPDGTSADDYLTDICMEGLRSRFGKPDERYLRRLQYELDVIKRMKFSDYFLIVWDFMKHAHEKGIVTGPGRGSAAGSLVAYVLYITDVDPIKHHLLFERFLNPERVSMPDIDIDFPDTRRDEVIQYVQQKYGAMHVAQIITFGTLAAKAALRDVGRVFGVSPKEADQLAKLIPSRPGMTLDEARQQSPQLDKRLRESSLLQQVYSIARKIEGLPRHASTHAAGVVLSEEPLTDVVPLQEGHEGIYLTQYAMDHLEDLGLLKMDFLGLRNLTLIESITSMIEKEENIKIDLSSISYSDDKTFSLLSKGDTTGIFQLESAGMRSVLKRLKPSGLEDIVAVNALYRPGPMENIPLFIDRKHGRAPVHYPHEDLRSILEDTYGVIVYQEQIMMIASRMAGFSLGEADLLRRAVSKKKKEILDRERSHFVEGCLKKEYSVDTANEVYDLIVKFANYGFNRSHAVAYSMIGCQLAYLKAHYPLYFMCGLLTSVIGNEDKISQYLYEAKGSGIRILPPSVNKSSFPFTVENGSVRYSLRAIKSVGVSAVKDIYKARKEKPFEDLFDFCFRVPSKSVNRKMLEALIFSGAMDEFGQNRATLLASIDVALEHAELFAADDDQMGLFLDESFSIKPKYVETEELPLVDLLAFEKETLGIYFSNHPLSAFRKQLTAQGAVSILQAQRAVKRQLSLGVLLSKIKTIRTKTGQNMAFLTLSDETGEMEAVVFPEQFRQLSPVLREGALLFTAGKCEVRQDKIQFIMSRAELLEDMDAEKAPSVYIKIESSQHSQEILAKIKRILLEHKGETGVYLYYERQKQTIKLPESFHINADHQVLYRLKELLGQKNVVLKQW
As to the kind of experiment: SEC. Background: In gel filtration, larger molecules generally elute earlier.

In test [2] the target is T1, DnaEBs DNA polymerase (Bacillus …). Kind of test: SPR. Background: Surface plasmon resonance follows binding to a sensor surface in real time, without labels.
The target in test [3] is B1. As to the kind of experiment: SPR.

On to B1, for which, in test [1], the binding result was “binds”.

B2: DnaG primase (Bacillus subtilis) (enzyme, UniProt P05096 1-603, looked up)
chain: MGNRIPDEIVDQVQKSADIVEVIGDYVQLKKQGRNYFGLCPFHGESTPSFSVSPDKQIFHCFGCGAGGNVFSFLRQMEGYSFAESVSHLADKYQIDFPDDITVHSGARPESSGEQKMAEAHELLKKFYHHLLINTKEGQEALDYLLSRGFTKELINEFQIGYALDSWDFITKFLVKRGFSEAQMEKAGLLIRREDGSGYFDRFRNRVMFPIHDHHGAVVAFSGRALGSQQPKYMNSPETPLFHKSKLLYNFYKARLHIRKQERAVLFEGFADVISAVSSDVKESIATMGTSLTDDHVKILRRNVEEIILCYDSDKAGYEATLKASELLQKKGCKVRVAMIPDGLDPDDYIKKFGGEKFKNDIIDASVTVMAFKMQYFRKGKNLSDEGDRLAYIKDVLKEISTLSGSLEQEVYVKQLASEFSLSQESLTEQLSVFSKQNKPADNSGETKTRRAHLTTKARQKRLRPAYENAERLLLAHMLRDRSVIKKVIDRVGFQFNIDEHRALAAYLYAFYEEGAELTPQHLMARVTDDHISQLLSDILMLQVNQELSEAELSDYVKKVLNQRNWSMIKEKEAERAEAERQKDFLRAASLAQEIVTLNRSLK
On to B2, for which, in test [2], the Ka is 1.33e+08 M⁻¹; the Kd (commonly the free concentration of one partner at which half of the binding sites on the other are occupied at equilibrium, for simple one-to-one binding) came out at 752 nM; the koff – broadly, a measure of how fast the partners let go of each other – was 0.00181 s⁻¹; the kon – broadly, the rate constant with which the complex forms – was 2400 M⁻¹ s⁻¹. In test [3], this molecule showed a Ka of 3.77e+06 M⁻¹, a Kd of 295 nM, a koff of 0.000287 s⁻¹ and a kon of 1080 M⁻¹ s⁻¹.
